Data from US10421817 (BEIJING MABWORKS BIOTECH, dated 2019).

Target: T1, human Claudin 18.1 (human, UniProt P56856 1-261)
T1 construct: Overexpressed on HEK293A cells by lentivirus
Assay: FACS on HEK293A/hClaudin 18.1 cells

T1 sequence (P56856 whole entry): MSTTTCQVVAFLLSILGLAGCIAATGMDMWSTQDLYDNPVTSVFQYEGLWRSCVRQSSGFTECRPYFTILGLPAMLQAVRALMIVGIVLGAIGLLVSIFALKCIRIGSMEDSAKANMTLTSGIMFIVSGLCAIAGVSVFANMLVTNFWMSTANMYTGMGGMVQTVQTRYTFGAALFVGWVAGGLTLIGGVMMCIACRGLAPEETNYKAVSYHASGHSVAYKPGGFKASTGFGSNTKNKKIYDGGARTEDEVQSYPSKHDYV

binding result | Binder
no binding | 18F2-30-VH5VL0 (antibody, human IgG1, kappa, V domains shown, Humanized, human IgG1/kappa constant regions) VH: QVQLVQSGAEVKKPGASVKVSCKASGYTFTSFWLNWVRQRPGQGLEWIGNIYPSTSYTVYNQKFKDRVTLTVDKSTSTAYMELSSLRSEDTAVYYCTRTWRGNSFDYWGQGTTVTVSS VL: DIVMTQSPDSLAVSLGERATINCKSSQSLLNSGNQKNYVTWYQQKPGQPPKLLIYWGSTRSTGVPDRFSGSGSGTDFTLTISSLQAEDVAVYYCQNDYTYPFTFGQGTKLEIKR
no binding | 18F2-30-VH7VL0 (antibody, human IgG1, kappa, V domains shown, Humanized, human IgG1/kappa constant regions) VH: QVQLVQSGAEVKKPGASVKVSCKASGYTFTSFWLNWVKQRPGQGLEWIGNIYPSTSYTVYNQKFKDKVTLTVDKSTSTAYMELSSLRSEDTAVYYCTRTWRGNSFDYWGQGTTVTVSS VL: DIVMTQSPDSLAVSLGERATINCKSSQSLLNSGNQKNYVTWYQQKPGQPPKLLIYWGSTRSTGVPDRFSGSGSGTDFTLTISSLQAEDVAVYYCQNDYTYPFTFGQGTKLEIKR
no binding | 18F2-30-VH2VL0 (antibody, human IgG1, kappa, V domains shown, Humanized, human IgG1/kappa constant regions) VH: QVQLVQSGAEVKKPGASVKVSCKASGYTFTSFWLNWVRQAPGQGLEWIGNIYPSTSYTVYNQKFKDRVTLTVDKSTSTVYMELSSLRSEDTAVYYCARTWRGNSFDYWGQGTTVTVSS VL: DIVMTQSPDSLAVSLGERATINCKSSQSLLNSGNQKNYVTWYQQKPGQPPKLLIYWGSTRSTGVPDRFSGSGSGTDFTLTISSLQAEDVAVYYCQNDYTYPFTFGQGTKLEIKR
no binding | 18F2-5VH6VL0 (antibody, human IgG1, kappa, V domains shown, Humanized, human IgG1/kappa constant regions) VH: QVQLVQSGAEVKKPGASVKVSCKASGYTFTSFWLNWVRQRPGQGLEWIGNIYPSTSYTVYNQKFKDRVTLTVDKSSSTAYMELSSLTSEDTAVYYCTRTWRGNSFDLWGQGTTVTVSS VL: DIVMTQSPDSLAVSLGERATINCKSNQSLLNSGNQKNYVTWYQQKPGQPPKLLIYWGSTRVRGVPDRFSGSGSGTDFTLTISSLQAEDVAVYYCQNDYTYPFTFGQGTKLEIKR
no binding | 18F2-5VH3VL0 (antibody, human IgG1, kappa, V domains shown, Humanized, human IgG1/kappa constant regions) VH: QVQLVQSGAEVKKPGASVKVSCKASGYTFTSFWLNWVRQAPGQGLEWIGNIYPSTSYTVYNQKFKDRVTLTVDTSTSTVYMELSSLRSEDTAVYYCARTWRGNSFDLWGQGTTVTVSS VL: DIVMTQSPDSLAVSLGERATINCKSNQSLLNSGNQKNYVTWYQQKPGQPPKLLIYWGSTRVRGVPDRFSGSGSGTDFTLTISSLQAEDVAVYYCQNDYTYPFTFGQGTKLEIKR
no binding | 18F2-5VH7VL3 (antibody, human IgG1, kappa, Humanized, human IgG1/kappa constant regions) heavy: not shown light: DIVMTQSPSSLTVSLGEKATISCKSNQSLLNSGNQKNYVTWYQQKPGQPPKLLIYWGSTRVRGVPDRFSGSGSGTDFTLTISSLQAEDLAVYYCQNDYTYPFTFGSGTKLEIKRTVAAPSVFIFPPSDEQLKSGTASVVCLLNNFYPREAKVQWKVDNALQSGNSQESVTEQDSKDSTYSLSSTLTLSKADYEKHKVYACEVTHQGLSSPVTKSFNRGEC
no binding | 18F2-35VH3VL0 (antibody, human IgG1, kappa, V domains shown, Humanized, human IgG1/kappa constant regions) VH: QVQLVQSGAEVKKPGASVKVSCKASGYTFTSFWLNWVRQAPGQGLEWIGNIYPSTSYTIYNQKFKDRVTLTVDTSTSTVYMELSSLRSEDTAVYYCARTWRGNSFDYWGQGTTVTVSS VL: DIVMTQSPDSLAVSLGERATINCKSSQSLLNSGNQKNYLTWYQQKPGQPPKLLIYWGSTRVRGVPDRFSGSGSGTDFTLTISSLQAEDVAVYYCQNDYTYPFTFGQGTKLEIKR
no binding | 18F2-35VH6VL0 (antibody, human IgG1, kappa, V domains shown, Humanized, human IgG1/kappa constant regions) VH: QVQLVQSGAEVKKPGASVKVSCKASGYTFTSFWLNWVRQRPGQGLEWIGNIYPSTSYTIYNQKFKDRVTLTVDKSSSTAYMELSSLTSEDTAVYYCTRTWRGNSFDYWGQGTTVTVSS VL: DIVMTQSPDSLAVSLGERATINCKSSQSLLNSGNQKNYLTWYQQKPGQPPKLLIYWGSTRVRGVPDRFSGSGSGTDFTLTISSLQAEDVAVYYCQNDYTYPFTFGQGTKLEIKR
no binding | 18F2-35VH4VL0 (antibody, human IgG1, kappa, V domains shown, Humanized, human IgG1/kappa constant regions) VH: QVQLVQSGAEVKKPGASVKVSCKASGYTFTSFWLNWVRQRPGQGLEWIGNIYPSTSYTIYNQKFKDRVTLTVDKSTSTVYMELSSLRSEDTAVYYCARTWRGNSFDYWGQGTTVTVSS VL: DIVMTQSPDSLAVSLGERATINCKSSQSLLNSGNQKNYLTWYQQKPGQPPKLLIYWGSTRVRGVPDRFSGSGSGTDFTLTISSLQAEDVAVYYCQNDYTYPFTFGQGTKLEIKR
no binding | 18F2-30-VH3VL0 (antibody, human IgG1, kappa, V domains shown, Humanized, human IgG1/kappa constant regions) VH: QVQLVQSGAEVKKPGASVKVSCKASGYTFTSFWLNWVRQAPGQGLEWIGNIYPSTSYTVYNQKFKDRVTLTVDTSTSTVYMELSSLRSEDTAVYYCARTWRGNSFDYWGQGTTVTVSS VL: DIVMTQSPDSLAVSLGERATINCKSSQSLLNSGNQKNYVTWYQQKPGQPPKLLIYWGSTRSTGVPDRFSGSGSGTDFTLTISSLQAEDVAVYYCQNDYTYPFTFGQGTKLEIKR
no binding | 18F2-30-VH6VL0 (antibody, human IgG1, kappa, V domains shown, Humanized, human IgG1/kappa constant regions) VH: QVQLVQSGAEVKKPGASVKVSCKASGYTFTSFWLNWVRQRPGQGLEWIGNIYPSTSYTVYNQKFKDRVTLTVDKSSSTAYMELSSLTSEDTAVYYCTRTWRGNSFDYWGQGTTVTVSS VL: DIVMTQSPDSLAVSLGERATINCKSSQSLLNSGNQKNYVTWYQQKPGQPPKLLIYWGSTRSTGVPDRFSGSGSGTDFTLTISSLQAEDVAVYYCQNDYTYPFTFGQGTKLEIKR
no binding | 18F2-5VH4VL0 (antibody, human IgG1, kappa, V domains shown, Humanized, human IgG1/kappa constant regions) VH: QVQLVQSGAEVKKPGASVKVSCKASGYTFTSFWLNWVRQRPGQGLEWIGNIYPSTSYTVYNQKFKDRVTLTVDKSTSTVYMELSSLRSEDTAVYYCARTWRGNSFDLWGQGTTVTVSS VL: DIVMTQSPDSLAVSLGERATINCKSNQSLLNSGNQKNYVTWYQQKPGQPPKLLIYWGSTRVRGVPDRFSGSGSGTDFTLTISSLQAEDVAVYYCQNDYTYPFTFGQGTKLEIKR
no binding | 18F2-35VH2VL0 (antibody, human IgG1, kappa, V domains shown, Humanized, human IgG1/kappa constant regions) VH: QVQLVQSGAEVKKPGASVKVSCKASGYTFTSFWLNWVRQAPGQGLEWIGNIYPSTSYTIYNQKFKDRVTLTVDKSTSTVYMELSSLRSEDTAVYYCARTWRGNSFDYWGQGTTVTVSS VL: DIVMTQSPDSLAVSLGERATINCKSSQSLLNSGNQKNYLTWYQQKPGQPPKLLIYWGSTRVRGVPDRFSGSGSGTDFTLTISSLQAEDVAVYYCQNDYTYPFTFGQGTKLEIKR
no binding | 18F2-5VH6VL3 (antibody, human IgG1, kappa, Humanized, human IgG1/kappa constant regions) heavy: not shown light: DIVMTQSPSSLTVSLGEKATISCKSNQSLLNSGNQKNYVTWYQQKPGQPPKLLIYWGSTRVRGVPDRFSGSGSGTDFTLTISSLQAEDLAVYYCQNDYTYPFTFGSGTKLEIKRTVAAPSVFIFPPSDEQLKSGTASVVCLLNNFYPREAKVQWKVDNALQSGNSQESVTEQDSKDSTYSLSSTLTLSKADYEKHKVYACEVTHQGLSSPVTKSFNRGEC
no binding | 18F2-30-VH4VL0 (antibody, human IgG1, kappa, V domains shown, Humanized, human IgG1/kappa constant regions) VH: QVQLVQSGAEVKKPGASVKVSCKASGYTFTSFWLNWVRQRPGQGLEWIGNIYPSTSYTVYNQKFKDRVTLTVDKSTSTVYMELSSLRSEDTAVYYCARTWRGNSFDYWGQGTTVTVSS VL: DIVMTQSPDSLAVSLGERATINCKSSQSLLNSGNQKNYVTWYQQKPGQPPKLLIYWGSTRSTGVPDRFSGSGSGTDFTLTISSLQAEDVAVYYCQNDYTYPFTFGQGTKLEIKR
no binding | 18F2-30-VH6VL3 (antibody, human IgG1, kappa, Humanized, human IgG1/kappa constant regions) heavy: not shown light: DIVMTQSPSSLTVSLGEKATISCKSSQSLLNSGNQKNYVTWYQQKPGQPPKLLIYWGSTRSTGVPDRFSGSGSGTDFTLTISSLQAEDLAVYYCQNDYTYPFTFGSGTKLEIKRTVAAPSVFIFPPSDEQLKSGTASVVCLLNNFYPREAKVQWKVDNALQSGNSQESVTEQDSKDSTYSLSSTLTLSKADYEKHKVYACEVTHQGLSSPVTKSFNRGEC
no binding | 18F2-35VH5VL0 (antibody, human IgG1, kappa, V domains shown, Humanized, human IgG1/kappa constant regions) VH: QVQLVQSGAEVKKPGASVKVSCKASGYTFTSFWLNWVRQRPGQGLEWIGNIYPSTSYTIYNQKFKDRVTLTVDKSTSTAYMELSSLRSEDTAVYYCTRTWRGNSFDYWGQGTTVTVSS VL: DIVMTQSPDSLAVSLGERATINCKSSQSLLNSGNQKNYLTWYQQKPGQPPKLLIYWGSTRVRGVPDRFSGSGSGTDFTLTISSLQAEDVAVYYCQNDYTYPFTFGQGTKLEIKR
no binding | 18F2-5VH5VL0 (antibody, human IgG1, kappa, V domains shown, Humanized, human IgG1/kappa constant regions) VH: QVQLVQSGAEVKKPGASVKVSCKASGYTFTSFWLNWVRQRPGQGLEWIGNIYPSTSYTVYNQKFKDRVTLTVDKSTSTAYMELSSLRSEDTAVYYCTRTWRGNSFDLWGQGTTVTVSS VL: DIVMTQSPDSLAVSLGERATINCKSNQSLLNSGNQKNYVTWYQQKPGQPPKLLIYWGSTRVRGVPDRFSGSGSGTDFTLTISSLQAEDVAVYYCQNDYTYPFTFGQGTKLEIKR
no binding | 18F2-5VH0VL0 (antibody, human IgG1, kappa, V domains shown, Humanized, human IgG1/kappa constant regions; also called 18F2-SVH0VL0) VH: QVQLVQSGAEVKKPGASVKVSCKASGYTFTSFWLNWVRQAPGQGLEWMGNIYPSTSYTVYNQKFKDRVTMTRDTSTSTVYMELSSLRSEDTAVYYCARTWRGNSFDLWGQGTTVTVSS VL: DIVMTQSPDSLAVSLGERATINCKSNQSLLNSGNQKNYVTWYQQKPGQPPKLLIYWGSTRVRGVPDRFSGSGSGTDFTLTISSLQAEDVAVYYCQNDYTYPFTFGQGTKLEIKR
no binding | 18F2-5VH6VL2 (antibody, human IgG1, kappa, Humanized, human IgG1/kappa constant regions) heavy: not shown light: DIVMTQSPSSLTVSLGEKATINCKSNQSLLNSGNQKNYVTWYQQKPGQPPKLLIYWGSTRVRGVPDRFSGSGSGTDFTLTISSLQAEDLAVYYCQNDYTYPFTFGQGTKLEIKRTVAAPSVFIFPPSDEQLKSGTASVVCLLNNFYPREAKVQWKVDNALQSGNSQESVTEQDSKDSTYSLSSTLTLSKADYEKHKVYACEVTHQGLSSPVTKSFNRGEC
no binding | 18F2-5VH7VL2 (antibody, human IgG1, kappa, Humanized, human IgG1/kappa constant regions) heavy: not shown light: DIVMTQSPSSLTVSLGEKATINCKSNQSLLNSGNQKNYVTWYQQKPGQPPKLLIYWGSTRVRGVPDRFSGSGSGTDFTLTISSLQAEDLAVYYCQNDYTYPFTFGQGTKLEIKRTVAAPSVFIFPPSDEQLKSGTASVVCLLNNFYPREAKVQWKVDNALQSGNSQESVTEQDSKDSTYSLSSTLTLSKADYEKHKVYACEVTHQGLSSPVTKSFNRGEC
